The text below walks through data of patent publication US20250296971A1, “GASTRIC INHIBITORY PEPTIDE RECEPTOR LIGANDS” (priority 2021, published 2025).

*1 amine or outer side, *2 acyl side, *3 side chain or, on linkers, in order; H or OH if unused. Where a SMILES comes first, the peptide text is derived from it. Bridges are numbered along the chain shown (N, C = ends). [ ]: non-standard residue; d: D form. The star is where a group is joined. Ttds = 1,13-diamino-4,7,10-trioxatridecan-succinamic acid, NCCCOCCOCCOCCCNC(=O)CCC(=O)*; NH(1-deoxy-D-glucityl) = OC[C@@H](O)[C@@H](O)[C@H](O)[C@@H](O)CN*; DOTA = O=C(O)CN1CCN(CC(=O)O)CCN(CC(=O)*)CCN(CC(=O)O)CC1; Trp(5-Cl) = N[C@@H](Cc1c[nH]c2ccc(Cl)cc12)C(=O)O; Phe(3,4-Cl2) = N[C@@H](Cc1ccc(Cl)c(Cl)c1)C(=O)O; Pyridine(2,6-diCH2) = c1cc(C[*:1])nc(C[*:2])c1; Oic = O=C(O)[C@@H]1C[C@@H]2CCCC[C@@H]2N1; mXylylene = c1cc(C[*:1])cc(C[*:2])c1; Hyp = O=C(O)[C@@H]1C[C@@H](O)CN1; X1 = O=C(CN1CCC(N[*:1])CC1)[*:2]; Cysteamide = C(CS[*:3])N[*:1]; Thp = NC1(C(=O)O)CCOCC1; Aib = CC(C)(N)C(=O)O; Sar = CNCC(=O)O

Series [1] deals with T1, GIPR (CHO-K1-hGIPR cells) (Homo sapiens, UniProt P48546).
T1 construct: host or cells: CHO-K1
T1 sequence (P48546 22-466): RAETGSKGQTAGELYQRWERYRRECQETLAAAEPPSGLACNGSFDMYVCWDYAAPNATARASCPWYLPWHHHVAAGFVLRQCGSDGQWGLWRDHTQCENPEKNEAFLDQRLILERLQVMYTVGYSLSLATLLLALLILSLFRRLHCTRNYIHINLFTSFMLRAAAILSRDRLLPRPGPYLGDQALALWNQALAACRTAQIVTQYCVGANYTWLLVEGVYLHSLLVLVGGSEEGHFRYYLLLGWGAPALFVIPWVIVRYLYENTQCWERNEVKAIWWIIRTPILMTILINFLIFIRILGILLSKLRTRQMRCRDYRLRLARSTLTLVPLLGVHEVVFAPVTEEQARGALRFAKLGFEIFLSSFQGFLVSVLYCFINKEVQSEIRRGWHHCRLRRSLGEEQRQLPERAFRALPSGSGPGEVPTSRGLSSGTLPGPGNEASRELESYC
In words: FACS binding assay. The settings on record: competition with 20 nM GIP-057, 4° C., 1 hour, read-out: pIC50 Category (converted). The procedure, abridged:
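Peptide binding read by flow cytometry as APC-channel median fluorescence, fitted with a four-parameter logistic to yield EC50 or IC50. Cells were hGIPR-transfected CHO-K1 in PBS with 1% FCS, detected with 1 μg/mL APC-streptavidin, 30 min on ice.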
A general note: Flow cytometry measures light scatter and fluorescence of single cells or particles in a stream.

Series [2] concerns the target T2, human GIP receptor (bioGIPR) (Homo sapiens, UniProt P48546).
T2 construct: Biotinylate extracellular of the human GIP receptor (bioGIPR, Proteros biostructures GmbH, lot #02/2b); purchased Proteros biostructures GmbH lot #02/2b
T2 sequence (P48546 22-138 limits assumed): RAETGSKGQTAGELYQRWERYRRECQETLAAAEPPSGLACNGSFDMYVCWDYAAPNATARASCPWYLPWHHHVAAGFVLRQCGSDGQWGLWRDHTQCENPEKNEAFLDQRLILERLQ
The series is described as follows: Surface plasmon resonance (SPR) based binding assay. The settings on record: Single Cycle Kinetic mode, 25° C. The procedure, abridged: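 Binding was measured at 25 °C by single-cycle kinetics against a reference flow cell, with blank-run and drift correction, after capturing biotinylated GIPR extracellular domain to ~3500 RU. Running buffer: HBST, 0.1% DMSO. A 1:1 Langmuir model gave kinetic rates, KD, t1/2 and pKD.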
In general terms: Surface plasmon resonance follows binding to a sensor surface in real time, without labels.

Series [3] in a line: Plasma stability assay, mouse plasma. It counts as in vitro ADME. The settings on record: 37° C., % intact compound remaining after 4 h or 24 h. On the procedure:
In order to determine the stability of selected compounds of the invention in human and mouse plasma, a plasma stability assay was carried out. Such plasma stability assay measures degradation of compounds of the present invention in blood plasma. This is an important characteristic of a compound as compounds, with the exception of pro-drugs, which rapidly degrade in plasma, generally show poor in vivo efficacy. […] The stability is sufficient for the diagnostic, therapeutic and theragnostic use of these compounds according to the present invention.
The plasma stability samples were prepared by spiking 50 μL plasma aliquots (all K2EDTA) with 1 μL of a 0.5 mM compound stock solution in DMS0. After vortexing the samples were incubated in a Thermomixer at 37° C. for 0, 4 and 24 hours. After incubation the samples were stored on ice until further treatment. All samples were prepared in duplicates.
A suitable internal standard was added to each sample (1 μL of a 0.5 mM stock solution in DMSO). Protein precipitation was performed by addition of 250 μL of acetonitrile containing 1% trifluoroacetic acid. After incubation at room temperature for 30 min the precipitate was separated by centrifugation and 150 μL of the supernatant was diluted with 150 μL of 1% aqueous formic acid.
Additionally, recovery was determined by spiking a pure plasma sample that only contained the internal standard after treatment with a certain amount of the compound.
Carry-over was evaluated by analysis of a blank sample (20% acetonitrile) after the highest calibration sample.

Series [4] concerns the target human Gastric Inhibitory Peptide Receptor (GIPR) (human) (UniProt P48546). In words: FACS competition vs biotinylated GIP-057 on CHO-K1-hGIPR cells; category D: pIC50 <=6.0.

Turning to `CC[C@H](C)[C@@H]1NC(=O)[C@H](CC(C)C)NC(=O)C2(CCOCC2)NC(=O)[C@@H](NC(=O)[C@@H](CC(C)C)NC(=O)[C@H](CCC(=O)O)NC(=O)[C@@H]2C[C@@H](O)CN2C(=O)[C@H](Cc2c[nH]c3ccc(Cl)cc23)NC(=O)[C@H](Cc2c[nH]c3ccccc23)NC(=O)[C@H](CC(=O)O)NC(=O)CN2CCC(NC(=O)[C@@H](CCC(=O)NC[C@H](O)[C@@H](O)[C@H](O)[C@H](O)CO)NC(=O)CN3CCN(CC(=O)O)CCN(CC(=O)O)CCN(CC(=O)O)CC3)CC2)CSCc2cccc(n2)CSC[C@@H](C(=O)NC2CCN(CC(=O)N[C@H](CCC(=O)NC[C@H](O)[C@@H](O)[C@H](O)[C@H](O)CO)C(N)=O)CC2)NC1=O` [GIP-005, DOTA-glu(AGLU)-APAc-Asp-Trp-5Clw-Hyp-Glu-leu-[Cys(2Lut)-Thp-Leu-Ile-Cys]-APAc-glu(AGLU)-NH2] ({DOTA}-[dE](NH(1-deoxy-D-glucityl))[X1]DW[Trp(5-Cl)][Hyp]E[dL]C[Thp]LIC[X1][dE](NH(1-deoxy-D-glucityl))-NH2; linker 9-13 via Pyridine(2,6-diCH2)), the IC50 in series [1] is < 10 nM. Also, the “t1/2 Category” value in series [2] (SPR dissociation half-life) was “A (t1/2 values>15 min)”. Besides, the Kd in series [2] (SPR, 1:1 Langmuir binding model, read-out: pKD Category (converted)) is < 1 nM. Further, in series [3], the “Mouse plasma stability category” value is listed as “A (>80% intact after 24 hours)”.

Take “Ac-Asp-Trp-1Ni-Pro-Glu-Thi-[Cys(3MeBn)-Aib-Leu-Ile-Cys]-NH2 (peptide)”: the pIC50 in series [4] is < 6 pic50.

As for “HO-Succinyl-Trp-Trp-Pro-Glu-leu-[Cys(3MeBn)-ala-Leu-Ile-Cys]-Ttds-Lys(DOTA)-NH2 (peptide)”, the pIC50 in series [4] was < 6 pic50.

B1: Ac-Asp-Eaa-Eaa-Oic-Glu-leu-[Cys(2Lut)-Thp-Leu-Ile-Cys]-NH2 (peptide)
peptide: Ac-D[Phe(3,4-Cl2)][Phe(3,4-Cl2)][Oic]E[dL]C[Thp]LIC-NH2
modifications: linker 7-11 via Pyridine(2,6-diCH2)
SMILES: CC[C@H](C)[C@@H]1NC(=O)[C@H](CC(C)C)NC(=O)C2(CCOCC2)NC(=O)[C@@H](NC(=O)[C@@H](CC(C)C)NC(=O)[C@H](CCC(=O)O)NC(=O)[C@@H]2C[C@@H]3CCCC[C@@H]3N2C(=O)[C@H](Cc2ccc(Cl)c(Cl)c2)NC(=O)[C@H](Cc2ccc(Cl)c(Cl)c2)NC(=O)[C@H](CC(=O)O)NC(C)=O)CSCc2cccc(n2)CSC[C@@H](C(N)=O)NC1=O
B1: the pIC50 in series [4] is < 6 pic50.

As to {DOTA-Ttds}-[dL]DP[Trp(5-Cl)]WLCE[Aib]I[Cysteamide] (linker 7-11 via mXylylene) [DOTA-Ttds-leu-Asp-Pro-5Clw-Trp-Leu-[Cys(3MeBn)-Glu-Aib-Ile-AET]], the pIC50 in series [4] is < 6 pic50.

B2: Ac-Asp-Eaa-Eaa-Nmg-Glu-leu-[Cys(2Lut)-Thp-Leu-Ile-Cys]-NH2 (peptide)
peptide: Ac-D[Phe(3,4-Cl2)][Phe(3,4-Cl2)][Sar]E[dL]C[Thp]LIC-NH2
modifications: linker 7-11 via Pyridine(2,6-diCH2)
SMILES: CC[C@H](C)[C@@H]1NC(=O)[C@H](CC(C)C)NC(=O)C2(CCOCC2)NC(=O)[C@@H](NC(=O)[C@@H](CC(C)C)NC(=O)[C@H](CCC(=O)O)NC(=O)CN(C)C(=O)[C@H](Cc2ccc(Cl)c(Cl)c2)NC(=O)[C@H](Cc2ccc(Cl)c(Cl)c2)NC(=O)[C@H](CC(=O)O)NC(C)=O)CSCc2cccc(n2)CSC[C@@H](C(N)=O)NC1=O
With B2, the pIC50 in series [4] is < 6 pic50.

{DOTA-Ttds}-WDP[Trp(5-Cl)][dL]ECLI[Aib][Cysteamide] (linker 7-11 via mXylylene) [DOTA-Ttds-Trp-Asp-Pro-5Clw-leu-Glu-[Cys(3MeBn)-Leu-Ile-Aib-AET]]: in series [4], the pIC50 is < 6 pic50.

B3: Ac-Asp-Trp-5Clw-Hyp-Glu-leu-[Cys(2Lut)-Thp-Leu-Trp-Cys]-NH2 (peptide)
peptide: Ac-DW[Trp(5-Cl)][Hyp]E[dL]C[Thp]LWC-NH2
modifications: linker 7-11 via Pyridine(2,6-diCH2)
SMILES: CC(=O)N[C@@H](CC(=O)O)C(=O)N[C@@H](Cc1c[nH]c2ccccc12)C(=O)N[C@@H](Cc1c[nH]c2ccc(Cl)cc12)C(=O)N1C[C@H](O)C[C@H]1C(=O)N[C@@H](CCC(=O)O)C(=O)N[C@H](CC(C)C)C(=O)N[C@H]1CSCc2cccc(n2)CSC[C@@H](C(N)=O)NC(=O)[C@H](Cc2c[nH]c3ccccc23)NC(=O)[C@H](CC(C)C)NC(=O)C2(CCOCC2)NC1=O
With B3, the pIC50 in series [4] was < 6 pic50.
